{
  "source": "patent US20260184777A1",
  "about": "(BEIJING SUNGEN BIOMEDICAL TECHNOLOGY, published 2026)",
  "key": {"[1]": {"biological_target": "T1, human S100A8/A9 heterodimeric antigen, His-tagged (hS100A8/A9-His) (human, UniProt P05109 1-93; P06702 1-114)", "T1 sequence 1": "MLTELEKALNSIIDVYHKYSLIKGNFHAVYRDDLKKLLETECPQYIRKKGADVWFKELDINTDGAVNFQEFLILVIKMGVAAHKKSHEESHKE", "T1 sequence 2": "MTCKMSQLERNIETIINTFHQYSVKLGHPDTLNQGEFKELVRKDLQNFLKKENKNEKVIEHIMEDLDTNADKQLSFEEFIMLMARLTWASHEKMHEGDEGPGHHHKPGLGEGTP"}, "[2]": {"biological_target": "monkey S100A8/A9 heterodimeric antigen (cS100A8/A9) (monkey)"}, "[3]": {"biological_target": "T2, S100A1 (human, UniProt P23297 1-94)", "T2 sequence (looked up)": "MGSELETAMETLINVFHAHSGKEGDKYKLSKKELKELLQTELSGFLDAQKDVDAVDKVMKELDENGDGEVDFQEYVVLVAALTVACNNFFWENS"}, "[4]": {"biological_target": "plague (UniProt P26948 22-170)", "sequence (P26948 22-170)": "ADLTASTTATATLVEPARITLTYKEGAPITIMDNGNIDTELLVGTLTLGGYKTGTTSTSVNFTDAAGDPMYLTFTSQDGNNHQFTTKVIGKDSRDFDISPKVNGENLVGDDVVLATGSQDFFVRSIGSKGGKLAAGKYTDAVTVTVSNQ"}, "[5]": {"biological_target": "T1, human S100A8/A9 heterodimeric antigen, …", "test": "cell-based or functional assay"}},
  "data": [
    {"binder": "Anti-S100A8/A9 monoclonal antibody (antibody, human IgG4 S228P, lambda, V domains shown, also called CM-1; parental antibody) VH: not shown VL: SYELTQPPSVSVAPGQTARITCSGDALGDKYASWYQQKPGQAPVLVIYEDSKRPSGIPERFSGSNSGNTATLTISGTQAEDEADYYCQSNDADSVWVFGGGTKLTVLG", "values": [
      {"measurement": "Kd", "setting": "[1]", "value": 8.95, "unit": "nM"},
      {"measurement": "Kd", "setting": "[2]", "value": 22.8, "unit": "nM"},
      {"measurement": "binding result", "setting": "[3]", "value": "no binding (tested: 20 µg/mL)"},
      {"measurement": "binding result", "setting": "[4]", "value": "no binding (tested: 20 µg/mL)"}
    ]},
    {"binder": "CM-32 (antibody, human IgG4 S228P, lambda, V domains shown) VH: not shown VL: SYELTQPPSVSVAPGQTARITCSGDALGDKYASWYQQKPGQAPVLVIYEDSHRPSGIPERFSGSNSGNTATLTISGTQAEDEADYYCQSNDADSVWVFGGGTKLTVLG", "values": [
      {"measurement": "IC50, inhibition of IL-6 release from hS100A8/A9-activated human PBMCs", "setting": "[5]", "value": 0.536, "unit": "µg/mL"}
    ]},
    {"binder": "CM-34 (antibody, human IgG4 S228P, lambda, V domains shown) VH: not shown VL: SYELTQPPSVSVAPGQTARITCSGDALGDKYASWYQQKPGQAPVLVIYEDSPRPSGIPERFSGSNSGNTATLTISGTQAEDEADYYCQSNDADSVWVFGGGTKLTVLG", "values": [
      {"measurement": "IC50, inhibition of IL-6 release from hS100A8/A9-activated human PBMCs", "setting": "[5]", "value": 1.22, "unit": "µg/mL"}
    ]},
    {"binder": "CM-38 (antibody, human IgG4 S228P, lambda, V domains shown) VH: not shown VL: SYELTQPPSVSVAPGQTARITCSGDALGDKYASWYQQKPGQAPVLVIYEDSKRPSGIPERFSGSNSGNTATLTISGTQAEDEADYYCQSNDIDSVWVFGGGTKLTVLG", "values": [
      {"measurement": "IC50, inhibition of IL-6 release from hS100A8/A9-activated human PBMCs", "setting": "[5]", "value": 0.084, "unit": "µg/mL"}
    ]},
    {"binder": "CM-30 (antibody, human IgG4 S228P, lambda, V domains shown) VH: not shown VL: SYELTQPPSVSVAPGQTARITCSGDALGDKYASWYQQKPGQAPVLVIYEDAKRPSGIPERFSGSNSGNTATLTISGTQAEDEADYYCQSNDADSVWVFGGGTKLTVLG", "values": [
      {"measurement": "IC50, inhibition of IL-6 release from hS100A8/A9-activated human PBMCs", "setting": "[5]", "value": 0.434, "unit": "µg/mL"}
    ]},
    {"binder": "CM-31 (antibody, human IgG4 S228P, lambda, V domains shown) VH: not shown VL: SYELTQPPSVSVAPGQTARITCSGDALGDKYASWYQQKPGQAPVLVIYEDHKRPSGIPERFSGSNSGNTATLTISGTQAEDEADYYCQSNDADSVWVFGGGTKLTVLG", "values": [
      {"measurement": "IC50, inhibition of IL-6 release from hS100A8/A9-activated human PBMCs", "setting": "[5]", "value": 0.48, "unit": "µg/mL"}
    ]},
    {"binder": "CM-29 (antibody, human IgG4 S228P, lambda, V domains shown) VH: not shown VL: SYELTQPPSVSVAPGQTARITCSGDALGDKYASWYQQKPGQAPVLVIYEQSKRPSGIPERFSGSNSGNTATLTISGTQAEDEADYYCQSNDADSVWVFGGGTKLTVLG", "values": [
      {"measurement": "IC50, inhibition of IL-6 release from hS100A8/A9-activated human PBMCs", "setting": "[5]", "value": 2, "unit": "µg/mL"}
    ]},
    {"binder": "CM-39 (antibody, human IgG4 S228P, lambda, V domains shown) VH: not shown VL: SYELTQPPSVSVAPGQTARITCSGDALGDKYASWYQQKPGQAPVLVIYEDSKRPSGIPERFSGSNSGNTATLTISGTQAEDEADYYCQSNDADAVWVFGGGTKLTVLG", "values": [
      {"measurement": "IC50, inhibition of IL-6 release from hS100A8/A9-activated human PBMCs", "setting": "[5]", "value": 0.452, "unit": "µg/mL"}
    ]},
    {"binder": "CM-33 (antibody, human IgG4 S228P, lambda, V domains shown) VH: not shown VL: SYELTQPPSVSVAPGQTARITCSGDALGDKYASWYQQKPGQAPVLVIYEDSRRPSGIPERFSGSNSGNTATLTISGTQAEDEADYYCQSNDADSVWVFGGGTKLTVLG", "values": [
      {"measurement": "IC50, inhibition of IL-6 release from hS100A8/A9-activated human PBMCs", "setting": "[5]", "value": 0.452, "unit": "µg/mL"}
    ]},
    {"binder": "CM-37 (antibody, human IgG4 S228P, lambda, V domains shown) VH: not shown VL: SYELTQPPSVSVAPGQTARITCSGDALGDKYASWYQQKPGQAPVLVIYEDSKRPSGIPERFSGSNSGNTATLTISGTQAEDEADYYCQSNDLDSVWVFGGGTKLTVLG", "values": [
      {"measurement": "IC50, inhibition of IL-6 release from hS100A8/A9-activated human PBMCs", "setting": "[5]", "value": 0.335, "unit": "µg/mL"}
    ]},
    {"binder": "CM-35 (antibody, human IgG4 S228P, lambda, V domains shown) VH: not shown VL: SYELTQPPSVSVAPGQTARITCSGDALGDKYASWYQQKPGQAPVLVIYEDSKRPSGIPERFSGSNSGNTATLTISGTQAEDEADYYCDSNDADSVWVFGGGTKLTVLG", "values": [
      {"measurement": "IC50, inhibition of IL-6 release from hS100A8/A9-activated human PBMCs", "setting": "[5]", "value": 0.655, "unit": "µg/mL"}
    ]},
    {"binder": "CM-36 (antibody, human IgG4 S228P, lambda, V domains shown) VH: not shown VL: SYELTQPPSVSVAPGQTARITCSGDALGDKYASWYQQKPGQAPVLVIYEDSKRPSGIPERFSGSNSGNTATLTISGTQAEDEADYYCQSNDVDSVWVFGGGTKLTVLG", "values": [
      {"measurement": "IC50, inhibition of IL-6 release from hS100A8/A9-activated human PBMCs", "setting": "[5]", "value": 0.393, "unit": "µg/mL"}
    ]}
  ]
}
